Experimental data taken from paper PMC4077652, “An Unstable Th Epitope of P. falciparum Fosters Central Memory T Cells and Anti-CS Antibody Responses” (PLoS ONE, 2014).
Where no end group is shown, it is not given here.

B1: biotin-labeled QNT-Y peptide (QNT-5 analogue L335Y) (peptide)
peptide: QNSYSTEWSPCSVT
modifications: not fully specified (N-terminus)
B2: biotin-labeled QNT-5 332-345 peptide (peptide)
peptide: QNSLSTEWSPCSVT
modifications: not fully specified (N-terminus)

Columns and labels:
[1] = molecular target: soluble recombinant HLA-DR4 (HLA-DRβ1*04:01) (human); experiment: ELISA
[2] = molecular target: soluble recombinant HLA-DR4 (HLA-DRβ1*04:01) (human); experiment: dissociation kinetics (LB3.1 capture, europium-streptavidin time-resolved fluorescence)
[3] = molecular target: soluble recombinant HLA-DR4 (HLA-DRβ1*04:01) (human); experiment: ELISA; apparent Kd; direct binding of biotin-labeled peptide to DR4 as in the DR-ELISA (72 h), binding reactions set up with 1 µM HLA-DM

Row | Binder | Kd [1] | half-life [2] | half-life with HLA-DM [2] | Kd [3]
1 | B1 | 25.5 nM | 138 h | 43.1 h | 35.7 nM
2 | B2 | 504 nM | 5.08 h | 1.75 h | 714 nM
